Holding throughout (test): cell-based or functional assay
In assay [1] the target is T1, full-length human GIPR with an N-terminal FLAG tag, overexpressed on HEK-293T cells (human, UniProt P48546 22-466).
T1 sequence (looked up): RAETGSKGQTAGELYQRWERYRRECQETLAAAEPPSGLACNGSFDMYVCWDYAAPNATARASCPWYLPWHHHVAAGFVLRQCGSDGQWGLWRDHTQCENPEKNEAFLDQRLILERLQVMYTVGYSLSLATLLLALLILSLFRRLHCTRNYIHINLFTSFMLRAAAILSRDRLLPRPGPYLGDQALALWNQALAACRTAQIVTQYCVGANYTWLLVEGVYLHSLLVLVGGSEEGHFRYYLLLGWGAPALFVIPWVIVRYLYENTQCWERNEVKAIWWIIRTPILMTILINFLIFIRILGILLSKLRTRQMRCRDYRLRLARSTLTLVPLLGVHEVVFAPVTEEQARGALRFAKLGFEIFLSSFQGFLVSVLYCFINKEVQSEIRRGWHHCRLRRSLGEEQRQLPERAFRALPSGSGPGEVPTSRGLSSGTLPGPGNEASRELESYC

For assay [2], the target named is full-length human GLP-1R with an N-terminal FLAG tag, overexpressed on HEK-293T cells (human, UniProt P43220 24-463).
The target in assay [3] is T2, full-length human GIPR with an N-terminal FLAG tag (human, UniProt P48546 22-466).
T2 sequence (looked up): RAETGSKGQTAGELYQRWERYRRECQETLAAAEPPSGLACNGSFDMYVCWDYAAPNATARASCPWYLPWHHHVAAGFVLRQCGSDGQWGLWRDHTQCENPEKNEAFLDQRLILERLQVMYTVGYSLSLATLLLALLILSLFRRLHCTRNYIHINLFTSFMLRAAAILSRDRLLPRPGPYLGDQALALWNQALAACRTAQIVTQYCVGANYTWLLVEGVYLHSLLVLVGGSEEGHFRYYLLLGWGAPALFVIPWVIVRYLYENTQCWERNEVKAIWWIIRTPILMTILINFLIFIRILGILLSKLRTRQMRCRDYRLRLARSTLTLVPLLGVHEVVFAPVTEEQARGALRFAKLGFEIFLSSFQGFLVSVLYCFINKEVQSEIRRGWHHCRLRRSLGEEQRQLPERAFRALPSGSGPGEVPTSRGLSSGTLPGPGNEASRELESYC

The target of assay [4] is full-length human GLP-1R with an N-terminal FLAG tag (human, UniProt P43220 24-463).

Starred links: 1 amine or outer side, 2 acyl side, 3 side chain; linkers in the order of their positions; H or OH if unused. Non-standard residues stand in square brackets, D forms with d. Groups on a side chain read outwards from the residue. No end group written: not given here. *: point of attachment. C15 diacid = O=C(O)CCCCCCCCCCCCCC(=O)*; γGlu = O=C(O)[C@H](CCC(=O)[*:2])N[*:1]; NMeY = CN[C@@H](Cc1ccc(O)cc1)C(=O)O; AEEA = NCCOCCOCC(=O)O; Aib = CC(C)(N)C(=O)O

With Me-Y[Aib]EGTFISDYSIALDR[Aib]KQ[Aib]DFVNWLLAQRG-OH (not fully specified (residues 1, 18)) [Compound 169], in assay [1], the “Human GIPR cAMP, HEK293T EC50” value was 0.0006 nM. For the same molecule, the “Human GLP1R cAMP HEK293T EC50” value in assay [2] is above 1000 nM.

B1: Compound 159 (peptide)
peptide: YXEGTFISDYSIAXDRXAQXDFVNWLLAQSPG
modifications: N-terminal Me (Me-Tyr1); Aib at 2, 17, 20; Km = Lys(R) at 14, linker printed GS (read as G5 = GGGGG), lipid C15DA (C15 diacid); C-terminal OH
B1: in assay [1], the “Human GIPR cAMP, HEK293T EC50” value was determined as 0.0002 nM. For the same molecule, the “Human GLP1R cAMP HEK293T EC50” value in assay [2] turned out to be 145 nM.

B2: Compound 182 (peptide)
peptide: YXEGTFISDYSIXXDRXAQXDFVNWLLAQSPG
modifications: N-terminal Me (Me-Tyr1); Aib at 2, 13, 17, 20; Km = Lys(R) at 14, linker printed GS (read as G5 = GGGGG), lipid C15DA (C15 diacid); C-terminal OH
In the case of B2, in assay [1], the “Human GIPR cAMP, HEK293T EC50” value was 0.0002 nM. Besides, the “Human GLP1R cAMP HEK293T EC50” value in assay [2] turned out to be 155 nM.
The matching figures for Me-Y[Aib]EGTFISDYSIAKDR[Aib]AQ[Aib]DFVNWLLAQRG-OH (not fully specified (residues 1, 14)) [Compound 173]: 0.0005 nM and above 1000 nM.
Turning to Me-Y[Aib]EGTFISDYSIALDR[Aib]KQ[Aib]DFVNWLLAQSG-OH (not fully specified (residues 1, 18)) [Compound 170], the “Human GIPR cAMP, HEK293T EC50” value in assay [1] was 0.0004 nM. Besides, in assay [2], the “Human GLP1R cAMP HEK293T EC50” value is above 1000 nM.
For the molecule Me-Y[Aib]EGTFISDYSI[Aib]LDR[Aib]AQ[Aib]KFVNWLLAQRG-OH (not fully specified (residues 1, 21)) [Compound 208], the “Human GIPR cAMP, HEK293T EC50” value in assay [1] worked out at 0.0003 nM.
As for [NMeY][Aib]EGTFISDYSIALDR[Aib]AQ[Aib]K([AEEA-γGlu-γGlu-γGlu-C15 diacid])FVNWLLA[Aib]K-OH (not fully specified) [Compound 45], the “Human GIPR cAMP, HEK293T EC50” value in assay [3] was found to be 0.0003 nM. Also, in assay [4], the “Human GLP1R cAMP HEK293T EC50” value was 48.4 nM.
Me-Y[Aib]EGTFISDYSIALDR[Aib]K([AEEA-AEEA-γGlu-γGlu-C15 diacid])Q[Aib]NFVNWLLAQRG-OH [Compound 171]: in assay [1], the “Human GIPR cAMP, HEK293T EC50” value stood at 0.0005 nM. Further, the “Human GLP1R cAMP HEK293T EC50” value in assay [2] was above 1000 nM.

B3: Compound 158 (peptide)
peptide: YXEGTFISDYSIAXDRXAQXDFVNWLLAQSPSSG
modifications: N-terminal Me (Me-Tyr1); Aib at 2, 17, 20; Km = Lys(R) at 14, linker printed GS (read as G5 = GGGGG), lipid C15DA (C15 diacid); C-terminal OH
Consider B3, for which the “Human GIPR cAMP, HEK293T EC50” value in assay [1] amounted to 0.0002 nM. The “Human GLP1R cAMP HEK293T EC50” value in assay [2] turned out to be 245 nM.

B4: Compound 157 (peptide)
peptide: YXEGTFISDYSIAXDRXAQXDFVNWLLAQSPSSGAPG
modifications: N-terminal Me (Me-Tyr1); Aib at 2, 17, 20; Km = Lys(R) at 14, linker printed GS (read as G5 = GGGGG), lipid C15DA (C15 diacid); C-terminal OH
Take B4: the “Human GIPR cAMP, HEK293T EC50” value in assay [1] is 0.0001 nM. The “Human GLP1R cAMP HEK293T EC50” value in assay [2] is 347 nM.
With Me-Y[Aib]EGTFISDYSIALDR[Aib]K([AEEA-AEEA-γGlu-γGlu-C15 diacid])Q[Aib]DFVNWLLAQRG-OH [Compound 162], the “Human GIPR cAMP, HEK293T EC50” value in assay [1] was determined as 0.0002 nM. Also, the “Human GLP1R cAMP HEK293T EC50” value in assay [2] is 513 nM.
Regarding [NMeY][Aib]EGTFISDYSIALDRK([AEEA-AEEA-γGlu-C15 diacid])HQ[Aib]NFVNWLLAQRPSSGAPPPS-OH (also: Me-Tyr methyl position not given here) [Compound 47], the “Human GIPR cAMP, HEK293T EC50” value in assay [3] stood at 0.0003 nM. For the same molecule, the “Human GLP1R cAMP HEK293T EC50” value in assay [4] was found to be 110 nM.
Take Me-Y[Aib]EGTFISDYSIALDR[Aib]AQ[Aib]KFVNWLLAQKG-OH (not fully specified (residues 1, 21)) [Compound 204]: the “Human GIPR cAMP, HEK293T EC50” value in assay [1] is 0.0008 nM.

B5: Compound 191 (peptide)
peptide: YXEGTFTSDYSIYLDKQAAXEFVNWLLAGGPSSGAPPPSX
modifications: not fully specified; no N-terminal group printed; Aib at 2, 20; Km = Lys(R) at 40, linker not given, lipid C16; C-terminal NH2
B5: the “Human GIPR cAMP, HEK293T EC50” value in assay [1] amounted to 0.0049 nM.

B6: Compound 164 (peptide)
peptide: YXEGTFISDYSIALDRXAQXNFVNWLLAQSPSSGAPPPS
modifications: N-terminal Me (Me-Tyr1); Aib at 2, 20; Km = Lys(R) at 17, linker printed GS (read as G5 = GGGGG), lipid C15DA (C15 diacid); C-terminal NH2
As to B6, the “Human GIPR cAMP, HEK293T EC50” value in assay [1] came out at 0.0002 nM. Further, the “Human GLP1R cAMP HEK293T EC50” value in assay [2] turned out to be 9.77 nM.

B7: Compound 165 (peptide)
peptide: YXEGTFISDYSIALDRXAQXDFVNWLLAQRPSSGAPPPS
modifications: N-terminal Me (Me-Tyr1); Aib at 2, 20; Km = Lys(R) at 17, linker printed GS (read as G5 = GGGGG), lipid C15DA (C15 diacid); C-terminal OH
Consider B7, for which the “Human GIPR cAMP, HEK293T EC50” value in assay [1] amounted to 0.0004 nM. Moreover, the “Human GLP1R cAMP HEK293T EC50” value in assay [2] amounted to 85.1 nM.
